Data as given in paper PMC10716038, “Talin and kindlin use integrin tail allostery and direct binding to activate integrins” (Nature Structural & Molecular Biology, 2023).
Values joined by “and” are separate entries in the source; they are usually repeats but may differ in a detail not shown here. Equal entries are not always repeated. No end group written: not given here.

Legend:
[1] = molecular target: T1, F3 domain of TLN1 (TLN1-F3) (UniProt P26039 305-405); assay: MST
T1 chain: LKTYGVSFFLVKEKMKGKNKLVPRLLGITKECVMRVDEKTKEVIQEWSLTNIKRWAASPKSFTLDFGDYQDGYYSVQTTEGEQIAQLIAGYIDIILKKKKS

[2] = molecular target: T2, F3 domain of TLN2 (TLN2-F3) (UniProt Q71LX4 311-408); assay: MST
T2 chain: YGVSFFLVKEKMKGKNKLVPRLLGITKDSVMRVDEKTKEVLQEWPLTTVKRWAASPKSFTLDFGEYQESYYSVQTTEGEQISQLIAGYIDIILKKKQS

[3] = molecular target: T3, KIND2 lacking the flexible loop in F1 and the PH domain (ΔKIND2); assay: MST
T3 chain: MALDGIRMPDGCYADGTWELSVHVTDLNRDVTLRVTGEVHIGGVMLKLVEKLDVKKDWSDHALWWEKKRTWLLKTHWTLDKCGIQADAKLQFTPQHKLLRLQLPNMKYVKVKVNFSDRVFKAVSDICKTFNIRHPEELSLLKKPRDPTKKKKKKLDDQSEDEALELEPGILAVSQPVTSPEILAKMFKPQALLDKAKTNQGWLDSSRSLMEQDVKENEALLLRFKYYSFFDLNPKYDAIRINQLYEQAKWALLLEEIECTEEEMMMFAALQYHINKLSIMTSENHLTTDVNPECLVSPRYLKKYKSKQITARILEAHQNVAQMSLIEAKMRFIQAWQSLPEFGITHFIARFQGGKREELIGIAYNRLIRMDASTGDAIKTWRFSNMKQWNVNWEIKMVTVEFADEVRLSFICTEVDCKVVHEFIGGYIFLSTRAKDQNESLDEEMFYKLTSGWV

THD1^K402E [4] = molecular target: T4, THD1^K402E (UniProt P26039 1-405, K402E); assay: MST; ATTO 488-labelled β-CT peptide (50–200 nM) held constant, one unlabelled protein titrated; 20 mM Tris pH 7.5, 200 mM NaCl, 1 mM TCEP, 0.05% Tween-20; apparent affinities (near-saturation only); conditions: both partners purified
T4 construct: talin-1 (TLN1) head domain, residues 1-405, with K402E; In FC-RDA a copy labelled with ATTO 565 was the reporter; also called 565–THD1^K402E; source: E. coli (DE3) Rosetta 2, purified (IMAC, SEC); not shown: His10, N-terminal, cleaved; SUMO, N-terminal, cleaved

[5] = molecular target: T5, talin-1 head domain (THD1) (UniProt P26039 1-405); assay: as above; conditions: both partners purified
T5 construct: talin-1 (TLN1) head domain (F0-F3), residues 1-405; In FC-RDA a copy labelled with ATTO 565 (565–THD1) was the reporter; also called 565–THD1; source: E. coli (DE3) Rosetta 2, purified (IMAC, SEC); not shown: His10, N-terminal, cleaved; SUMO, N-terminal, cleaved

kindlin-2 (KIND2) [6] = molecular target: T6, kindlin-2 (KIND2) (UniProt Q8CIB5 1-680); assay: as above; conditions: both partners purified
T6 construct: kindlin-2 (KIND2) without the deletions of ΔKIND2; In FC-RDA a copy labelled with Alexa 647 (647–KIND2) was the reporter; also called 647–KIND2; source: E. coli Rosetta, purified (IMAC, SEC); not shown: His10, N-terminal, cleaved; SUMO, N-terminal, cleaved
T6 sequence (looked up): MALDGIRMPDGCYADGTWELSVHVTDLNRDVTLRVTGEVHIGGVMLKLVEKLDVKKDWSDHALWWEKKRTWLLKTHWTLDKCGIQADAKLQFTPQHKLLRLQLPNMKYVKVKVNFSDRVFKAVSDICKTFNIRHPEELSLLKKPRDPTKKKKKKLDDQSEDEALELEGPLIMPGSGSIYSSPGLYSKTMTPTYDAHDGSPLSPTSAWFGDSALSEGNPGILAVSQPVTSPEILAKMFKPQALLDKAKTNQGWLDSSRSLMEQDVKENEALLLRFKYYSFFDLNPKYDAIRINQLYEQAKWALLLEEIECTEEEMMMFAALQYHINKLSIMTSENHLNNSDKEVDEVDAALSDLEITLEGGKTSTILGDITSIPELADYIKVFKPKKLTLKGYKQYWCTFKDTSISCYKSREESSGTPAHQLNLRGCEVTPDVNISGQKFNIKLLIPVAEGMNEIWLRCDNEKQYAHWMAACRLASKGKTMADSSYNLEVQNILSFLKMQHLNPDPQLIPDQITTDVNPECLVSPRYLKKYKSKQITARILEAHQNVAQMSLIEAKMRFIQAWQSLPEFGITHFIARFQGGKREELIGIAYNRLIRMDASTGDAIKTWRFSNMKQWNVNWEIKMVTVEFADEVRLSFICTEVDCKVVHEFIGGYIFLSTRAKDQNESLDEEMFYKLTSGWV

[7] = molecular target: T7, talin-2 head domain (THD2) (UniProt Q71LX4 1-408); assay: as above; conditions: both partners purified
T7 construct: talin-2 (TLN2) head domain, residues 1-408; source: E. coli (DE3) Rosetta 2, purified (IMAC, SEC); not shown: His10, N-terminal, cleaved; SUMO, N-terminal, cleaved

KIND2^Y13A [8] = molecular target: T8, KIND2^Y13A (UniProt Q8CIB5 1-680, Y13A); assay: as above; conditions: both partners purified
T8 construct: kindlin-2 (KIND2) with Y13A; In FC-RDA a copy labelled with Alexa 647 was the reporter; also called 647–KIND2^Y13A; source: E. coli Rosetta, purified (IMAC, SEC); not shown: His10, N-terminal, cleaved; SUMO, N-terminal, cleaved
T8 sequence (looked up): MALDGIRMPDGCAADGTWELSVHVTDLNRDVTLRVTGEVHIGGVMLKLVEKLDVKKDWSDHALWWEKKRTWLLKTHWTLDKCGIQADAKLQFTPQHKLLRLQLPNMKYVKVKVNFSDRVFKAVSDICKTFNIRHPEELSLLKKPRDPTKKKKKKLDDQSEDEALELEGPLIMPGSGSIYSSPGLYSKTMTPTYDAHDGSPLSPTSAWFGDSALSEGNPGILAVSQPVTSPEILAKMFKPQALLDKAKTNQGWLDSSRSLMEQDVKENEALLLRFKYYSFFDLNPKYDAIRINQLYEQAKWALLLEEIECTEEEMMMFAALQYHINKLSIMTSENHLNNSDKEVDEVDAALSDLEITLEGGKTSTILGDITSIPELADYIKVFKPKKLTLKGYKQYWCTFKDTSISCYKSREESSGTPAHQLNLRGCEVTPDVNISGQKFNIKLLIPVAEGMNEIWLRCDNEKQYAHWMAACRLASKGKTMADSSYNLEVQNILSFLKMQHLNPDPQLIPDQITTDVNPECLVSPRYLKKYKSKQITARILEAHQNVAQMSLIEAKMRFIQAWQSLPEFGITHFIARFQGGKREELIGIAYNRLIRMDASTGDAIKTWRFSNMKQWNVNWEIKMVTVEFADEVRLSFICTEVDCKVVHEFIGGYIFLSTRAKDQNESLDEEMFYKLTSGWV

THD1^K402E [9] = molecular target: T4, THD1^K402E; assay: flow cytometry-based reporter-displacement assay (FC-RDA) on beads; biotinylated TM–CT in nanodiscs (10% PIP2 or PIP3, 90% DMPC) on streptavidin Dynabeads; reporters 100 nM 565–THD1 or 50 nM 647–KIND2; unlabelled THD1 or KIND2 titrated; 20 mM Tris pH 7.5, 200 mM NaCl, 10 min at room temperature; the lipids add to the binding; conditions: both partners purified
[10] = molecular target: T5, talin-1 head domain (THD1); assay: as above; conditions: both partners purified
kindlin-2 (KIND2) [11] = molecular target: T6, kindlin-2 (KIND2); assay: as above; conditions: both partners purified
KIND2^Y13A [12] = molecular target: T8, KIND2^Y13A; assay: as above; conditions: both partners purified
[13] = molecular target: T9, F3 domain of TLN1 (TLN1-F3) (UniProt P26039 305-405); assay: NMR titration; isotope-labelled β1-CT observed (1H-15N HSQC, 1H-13C methyl correlations); unlabelled TLN1-F3 or ΔKIND2 added alone at increasing stoichiometries; 20 mM Tris, 200 mM NaCl, 1 mM DTT, pH 7.5, 298 K; conditions: both partners purified
T9 construct: Used unlabelled, 15N-labelled or partially deuterated in NMR; also called T1-F3; source: E. coli (DE3) Rosetta 2, purified (IMAC, SEC); not shown: His10, N-terminal, cleaved; SUMO, N-terminal, cleaved

TLN1-F3^K402E = molecular target: T10, TLN1-F3^K402E (UniProt P26039 305-405, K402E); assay: NMR titration; isotope-labelled β1-CT observed; TLN1-F3 and ΔKIND2 (wild type or K402E / Y13A) added together, ternary complex; 20 mM Tris, 200 mM NaCl, 1 mM DTT, pH 7.5, 298 K; conditions: both partners purified
T10 construct: source: E. coli (DE3) Rosetta 2, purified (IMAC, SEC); not shown: His10, N-terminal, cleaved; SUMO, N-terminal, cleaved

T4 sequence (P26039 1-405 K402E): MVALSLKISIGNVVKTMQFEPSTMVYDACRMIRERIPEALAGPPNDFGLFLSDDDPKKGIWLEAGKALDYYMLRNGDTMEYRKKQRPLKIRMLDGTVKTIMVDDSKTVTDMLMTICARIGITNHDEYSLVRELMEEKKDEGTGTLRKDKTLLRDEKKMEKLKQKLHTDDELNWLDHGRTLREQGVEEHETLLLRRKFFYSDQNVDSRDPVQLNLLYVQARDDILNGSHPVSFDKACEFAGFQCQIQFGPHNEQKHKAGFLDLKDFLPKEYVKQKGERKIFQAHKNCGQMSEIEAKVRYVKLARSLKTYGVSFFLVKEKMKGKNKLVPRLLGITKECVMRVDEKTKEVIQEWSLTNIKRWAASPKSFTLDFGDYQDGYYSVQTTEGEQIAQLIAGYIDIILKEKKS

B1: ATTO 488-labelled β3-CT (488–β3-CT) (peptide, UniProt O54890 741-787, looked up)
peptide: {ATTO 488}-KLLITIHDRKEFAKFEEERARAKWDTANNPLYKEATSTFTNITYRGT
notes: integrin β3 cytoplasmic tail; source: synthetic peptide (MPIB Core Facility)
Kd [1]: 106 µM | Kd [2]: 98 µM | Kd [3]: 6.8 µM | Kd (THD1^K402E [4]): 34 µM | Kd [5]: 108 µM and 105 µM | Kd (kindlin-2 (KIND2) [6]): 9 µM | Kd [7]: 39 µM | Kd (KIND2^Y13A [8]): 9 µM

B2: β3 transmembrane and cytoplasmic tail polypeptide (β3-TM–CT) in nanodiscs (domain or fragment, UniProt O54890 715-787, looked up)
chain: GPDILVVLLSVMGAILLIGLATLLIWKLLITIHDRKEFAKFEEERARAKWDTANNPLYKEATSTFTNITYRGT
modifications: biotin (biotin-maleimide)
notes: integrin β3 transmembrane helix and cytoplasmic tail, residues 715-787; Embedded in nanodiscs of 10% PIP2 or PIP3 and 90% DMPC; held on streptavidin beads by the biotin; source: E. coli BL21 (DE3) Rosetta 2, inclusion bodies, purified (IMAC, cation exchange), put into MSP2N2 nanodiscs
binding result (THD1^K402E [9]): binds | binding result [10]: binds | binding result (kindlin-2 (KIND2) [11]): binds | binding result (KIND2^Y13A [12]): binds

B3: integrin β1A cytoplasmic tail (β1-CT), recombinant (peptide, UniProt P05556-1 758-798, looked up)
chain: HDRREFAKFEKEKMNAKWDTGENPIYKSAVTTVVNPKYEGK
notes: integrin β1, splice isoform A, cytoplasmic tail, residues 758-798; DNA synthesised; 15N-, 13C,15N- or 2H,13C,15N-labelled when observed by NMR; also called β1A-CT; integrin-β1-CT; source: E. coli (DE3) Rosetta 2 in M9 medium, purified (IMAC, cation exchange); not shown: His10, N-terminal, cleaved; SUMO, N-terminal, cleaved
binding result [13]: binds | binding result (TLN1-F3^K402E): binds
